Assay results reported in article PMC5143326.
pKd: −log10 of the molar value.

Columns and labels:
LRP1 (Homo sapiens) = LRP1 (Homo sapiens) (UniProt Q07954); conditions: cited from earlier work
[1] = target: low density lipoprotein receptor-related protein 1 (LRP1), purified from placenta; experiment: SPR; Biacore T100; LRP1 immobilised on CM5 chip at 3.4 fmol/mm2; CCN-2 or its fragments flowed over; 10 mM Hepes pH 7.4, 150 mM NaCl, 5 mM CaCl2, 0.005 % surfactant P20; 25 °C; affinity constants by steady-state analysis

Chain of UniProt Q07954 (Q07954 20-4544): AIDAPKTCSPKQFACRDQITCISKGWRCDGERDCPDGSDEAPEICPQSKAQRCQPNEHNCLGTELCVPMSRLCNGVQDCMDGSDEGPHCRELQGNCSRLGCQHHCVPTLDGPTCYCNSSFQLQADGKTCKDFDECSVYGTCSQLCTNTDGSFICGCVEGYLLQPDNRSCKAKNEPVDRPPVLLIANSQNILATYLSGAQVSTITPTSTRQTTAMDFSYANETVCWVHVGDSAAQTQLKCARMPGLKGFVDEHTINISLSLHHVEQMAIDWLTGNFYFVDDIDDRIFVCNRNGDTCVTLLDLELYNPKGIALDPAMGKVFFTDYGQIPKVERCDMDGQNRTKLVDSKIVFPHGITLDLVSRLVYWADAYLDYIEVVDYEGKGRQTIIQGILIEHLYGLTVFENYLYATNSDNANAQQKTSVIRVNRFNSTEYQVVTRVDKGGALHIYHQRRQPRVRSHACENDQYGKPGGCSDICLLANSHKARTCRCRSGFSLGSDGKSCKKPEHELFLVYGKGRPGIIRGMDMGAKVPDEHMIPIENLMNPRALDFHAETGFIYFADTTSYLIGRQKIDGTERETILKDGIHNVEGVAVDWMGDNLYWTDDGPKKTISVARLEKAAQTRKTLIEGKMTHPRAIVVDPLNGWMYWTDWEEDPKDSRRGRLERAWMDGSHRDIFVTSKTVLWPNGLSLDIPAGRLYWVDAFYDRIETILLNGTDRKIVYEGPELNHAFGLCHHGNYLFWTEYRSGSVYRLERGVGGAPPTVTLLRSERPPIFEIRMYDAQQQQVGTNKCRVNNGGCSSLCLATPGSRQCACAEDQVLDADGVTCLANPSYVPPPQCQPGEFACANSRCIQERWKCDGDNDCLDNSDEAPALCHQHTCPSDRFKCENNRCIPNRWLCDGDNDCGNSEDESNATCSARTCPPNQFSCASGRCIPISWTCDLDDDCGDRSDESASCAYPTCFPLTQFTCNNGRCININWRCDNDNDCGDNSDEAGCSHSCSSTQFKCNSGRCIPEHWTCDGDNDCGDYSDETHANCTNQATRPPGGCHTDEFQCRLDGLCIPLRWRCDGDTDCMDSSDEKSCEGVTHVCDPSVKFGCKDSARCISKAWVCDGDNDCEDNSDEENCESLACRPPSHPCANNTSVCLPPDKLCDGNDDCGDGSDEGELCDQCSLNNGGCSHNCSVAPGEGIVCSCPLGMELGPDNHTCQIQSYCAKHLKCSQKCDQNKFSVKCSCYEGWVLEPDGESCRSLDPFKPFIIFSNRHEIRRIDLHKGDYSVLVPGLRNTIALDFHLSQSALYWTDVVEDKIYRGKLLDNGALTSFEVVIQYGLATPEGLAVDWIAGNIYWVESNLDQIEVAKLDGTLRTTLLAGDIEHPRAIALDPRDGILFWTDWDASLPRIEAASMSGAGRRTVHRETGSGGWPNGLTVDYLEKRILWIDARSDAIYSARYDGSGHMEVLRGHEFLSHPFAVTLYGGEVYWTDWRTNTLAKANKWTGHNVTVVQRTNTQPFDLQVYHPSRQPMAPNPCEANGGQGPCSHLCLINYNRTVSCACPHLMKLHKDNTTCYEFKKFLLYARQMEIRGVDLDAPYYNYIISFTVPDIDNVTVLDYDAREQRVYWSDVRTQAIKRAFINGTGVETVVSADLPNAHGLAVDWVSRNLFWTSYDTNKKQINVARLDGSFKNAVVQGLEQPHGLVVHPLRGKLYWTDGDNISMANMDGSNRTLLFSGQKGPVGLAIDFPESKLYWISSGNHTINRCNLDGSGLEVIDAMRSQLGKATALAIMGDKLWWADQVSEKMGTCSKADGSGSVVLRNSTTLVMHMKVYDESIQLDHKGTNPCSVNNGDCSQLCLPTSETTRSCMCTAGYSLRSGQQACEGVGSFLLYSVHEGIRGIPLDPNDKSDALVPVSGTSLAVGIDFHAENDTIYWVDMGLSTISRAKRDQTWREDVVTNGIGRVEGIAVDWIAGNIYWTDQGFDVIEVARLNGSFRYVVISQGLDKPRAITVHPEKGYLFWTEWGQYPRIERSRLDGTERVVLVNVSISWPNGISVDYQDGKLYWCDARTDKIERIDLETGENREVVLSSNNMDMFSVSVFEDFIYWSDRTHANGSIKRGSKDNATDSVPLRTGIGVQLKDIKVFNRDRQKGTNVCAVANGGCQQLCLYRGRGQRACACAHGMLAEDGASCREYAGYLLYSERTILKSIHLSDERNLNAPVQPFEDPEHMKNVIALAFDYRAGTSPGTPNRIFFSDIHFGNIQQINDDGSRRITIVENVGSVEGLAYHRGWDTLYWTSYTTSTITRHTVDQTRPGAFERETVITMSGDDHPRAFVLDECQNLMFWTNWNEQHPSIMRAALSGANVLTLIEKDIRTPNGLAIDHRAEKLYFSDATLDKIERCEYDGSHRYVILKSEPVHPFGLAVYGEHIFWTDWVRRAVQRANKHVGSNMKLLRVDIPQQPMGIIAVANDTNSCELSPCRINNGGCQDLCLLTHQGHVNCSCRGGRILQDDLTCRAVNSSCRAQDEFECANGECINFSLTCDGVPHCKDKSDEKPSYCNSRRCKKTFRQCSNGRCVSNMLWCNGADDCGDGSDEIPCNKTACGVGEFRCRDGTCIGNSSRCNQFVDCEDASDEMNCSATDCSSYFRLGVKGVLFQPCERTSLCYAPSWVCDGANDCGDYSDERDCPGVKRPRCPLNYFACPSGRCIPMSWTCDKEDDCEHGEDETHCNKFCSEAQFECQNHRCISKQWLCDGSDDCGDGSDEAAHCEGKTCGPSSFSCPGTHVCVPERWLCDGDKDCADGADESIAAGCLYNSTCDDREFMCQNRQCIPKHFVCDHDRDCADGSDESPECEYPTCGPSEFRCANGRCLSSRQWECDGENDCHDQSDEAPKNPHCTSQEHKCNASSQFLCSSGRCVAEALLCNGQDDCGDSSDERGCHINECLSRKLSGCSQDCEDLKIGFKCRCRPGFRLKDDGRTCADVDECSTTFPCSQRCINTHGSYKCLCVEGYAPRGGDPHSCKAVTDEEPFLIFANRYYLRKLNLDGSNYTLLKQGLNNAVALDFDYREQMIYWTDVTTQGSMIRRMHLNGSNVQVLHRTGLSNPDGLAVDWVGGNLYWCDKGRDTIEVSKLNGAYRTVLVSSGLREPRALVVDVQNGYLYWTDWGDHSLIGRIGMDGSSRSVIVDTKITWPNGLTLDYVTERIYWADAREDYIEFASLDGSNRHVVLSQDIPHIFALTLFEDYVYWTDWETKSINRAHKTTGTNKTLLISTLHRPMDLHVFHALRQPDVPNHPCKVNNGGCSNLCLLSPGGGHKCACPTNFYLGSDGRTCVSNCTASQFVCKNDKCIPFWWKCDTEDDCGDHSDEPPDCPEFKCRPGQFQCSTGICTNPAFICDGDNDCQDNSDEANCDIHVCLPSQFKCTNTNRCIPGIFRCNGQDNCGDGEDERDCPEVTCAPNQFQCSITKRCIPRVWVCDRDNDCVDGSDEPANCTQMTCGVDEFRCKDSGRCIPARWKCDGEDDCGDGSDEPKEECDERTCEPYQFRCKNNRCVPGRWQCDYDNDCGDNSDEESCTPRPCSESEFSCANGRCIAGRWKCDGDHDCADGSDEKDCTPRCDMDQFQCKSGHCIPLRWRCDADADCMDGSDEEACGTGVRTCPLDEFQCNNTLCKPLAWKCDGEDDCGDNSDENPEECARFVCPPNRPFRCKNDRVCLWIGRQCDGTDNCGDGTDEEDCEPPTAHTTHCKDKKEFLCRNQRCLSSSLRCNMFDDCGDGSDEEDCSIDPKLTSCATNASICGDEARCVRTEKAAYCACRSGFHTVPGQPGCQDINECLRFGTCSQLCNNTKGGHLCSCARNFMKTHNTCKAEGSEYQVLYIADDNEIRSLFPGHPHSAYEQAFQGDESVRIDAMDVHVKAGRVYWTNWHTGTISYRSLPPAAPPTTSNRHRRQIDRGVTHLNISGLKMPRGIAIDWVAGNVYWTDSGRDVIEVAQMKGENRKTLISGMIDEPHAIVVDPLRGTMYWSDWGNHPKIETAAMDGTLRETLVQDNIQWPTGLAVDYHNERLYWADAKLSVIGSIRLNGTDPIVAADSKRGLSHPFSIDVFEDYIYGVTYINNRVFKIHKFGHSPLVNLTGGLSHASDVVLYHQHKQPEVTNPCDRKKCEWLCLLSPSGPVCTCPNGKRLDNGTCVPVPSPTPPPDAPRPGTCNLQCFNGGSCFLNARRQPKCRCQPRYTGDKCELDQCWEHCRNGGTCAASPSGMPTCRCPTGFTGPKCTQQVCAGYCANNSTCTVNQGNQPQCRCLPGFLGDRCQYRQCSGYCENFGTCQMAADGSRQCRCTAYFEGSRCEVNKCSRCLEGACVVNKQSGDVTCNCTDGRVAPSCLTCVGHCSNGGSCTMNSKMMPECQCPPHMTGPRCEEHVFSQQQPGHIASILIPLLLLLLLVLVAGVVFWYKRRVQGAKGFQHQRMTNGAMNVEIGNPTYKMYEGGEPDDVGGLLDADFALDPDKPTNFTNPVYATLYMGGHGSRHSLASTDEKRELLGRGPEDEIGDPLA

Row | pKd [1] | Substance | pKd (LRP1 (Homo sapiens))
1 | – | RAP (from UniProt P30533) | 8.27
2 | 6.95 | recombinant human CCN-2 C-terminal fragment (domain 3 and 4) (domain or fragment) | –
3 | 6.94 | recombinant human full length CCN-2 (connective tissue growth factor) (from UniProt P29279 27-349) (natural protein) | –
